{"source": "patent US20040072293A1", "about": "“Novel physiologically active peptide and use thereof” (priority 2001, published 2004)", "molecules": {"B1": {"name": "MIT1 (protein, listed as Dendroaspip polylepis)", "chain": "AVITGACERDLQCGKGTCCAVSLWIKSVRVCTPVGTSGEDCHPASHKIPFSGQRMHHTCPCAPNLACVQTSPKKFKCLSK"}}, "key": {"[1]": {"system": "ileum or distal colon", "settings": "cited from earlier work"}, "[2]": {"system": "proximal colon", "settings": "cited from earlier work"}, "[3]": {"biological_target": "T1, the protein of the invention (ZAQ) (Homo sapiens, UniProt Q8TCW9)", "T1 construct": "expressed in transfected cells", "T1 sequence (Q8TCW9 whole entry)": "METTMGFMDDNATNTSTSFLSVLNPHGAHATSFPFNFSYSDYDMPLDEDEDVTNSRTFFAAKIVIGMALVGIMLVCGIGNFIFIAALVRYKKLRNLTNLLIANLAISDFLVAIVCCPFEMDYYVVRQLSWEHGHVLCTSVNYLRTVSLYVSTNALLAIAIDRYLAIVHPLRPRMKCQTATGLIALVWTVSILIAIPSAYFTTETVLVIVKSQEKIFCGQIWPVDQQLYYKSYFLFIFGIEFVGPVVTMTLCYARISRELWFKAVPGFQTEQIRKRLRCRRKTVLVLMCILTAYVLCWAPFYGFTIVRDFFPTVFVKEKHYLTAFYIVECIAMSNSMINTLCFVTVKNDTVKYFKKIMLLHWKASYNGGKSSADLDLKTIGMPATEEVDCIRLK", "assay": "activation of the protein of the invention and intracellular Ca ion concentration in cells expressing it", "type": "cell-based"}}}
{"molecule": "B1", "values": [{"measurement": "contraction in the ileum or distal colon", "setting": "[1]", "value": "induced contraction in the ileum or distal colon"}, {"measurement": "degree of contraction/relaxation compared with potassium chloride", "setting": "[1]; ileum, distal colon (contraction) and proximal colon (relaxation), comparator 40 mM potassium chloride", "value": "as potent as comparable to 40 mM potassium chloride"}, {"measurement": "relaxation in the proximal colon", "setting": "[2]", "value": "relaxation in the proximal colon"}, {"measurement": "activation of the protein of the invention", "setting": "[3]", "value": "activated the protein of the invention"}, {"measurement": "intracellular Ca ion concentration", "setting": "[3]; cells in which the protein of the invention was expressed", "value": "increased intracellular Ca ion concentration"}]}
